Experimental data as given in patent US20250051409A1, “MODULATORS OF PHOSPHATIDYLSERlNE DECARBOXYLASE AND USE THEREOF” (THE NATIONAL INSTITUTE FOR BIOTECHNOLOGY IN THE NEGEV LTD., priority 2021, published 2025).

How the values were obtained:
[1] = molecular target: T1, phosphatidylserine decarboxylase (PSD) (Homo sapiens, UniProt Q9UG56); test: MST interaction of purified SMAC with purified PSD; type: binding; settings: SMAC 1 μM, PSD 78-625 nM, 30 min at 37° C., read-out: dissociation constant (Kd) of PSD interaction with SMAC
T1 construct: Purified recombinant protein (full length) of human phosphatidylserine decarboxylase (PSD); His tag (N); purchased Acris-OriGene; host or cells: E. coli
T1 sequence (Q9UG56 53-409): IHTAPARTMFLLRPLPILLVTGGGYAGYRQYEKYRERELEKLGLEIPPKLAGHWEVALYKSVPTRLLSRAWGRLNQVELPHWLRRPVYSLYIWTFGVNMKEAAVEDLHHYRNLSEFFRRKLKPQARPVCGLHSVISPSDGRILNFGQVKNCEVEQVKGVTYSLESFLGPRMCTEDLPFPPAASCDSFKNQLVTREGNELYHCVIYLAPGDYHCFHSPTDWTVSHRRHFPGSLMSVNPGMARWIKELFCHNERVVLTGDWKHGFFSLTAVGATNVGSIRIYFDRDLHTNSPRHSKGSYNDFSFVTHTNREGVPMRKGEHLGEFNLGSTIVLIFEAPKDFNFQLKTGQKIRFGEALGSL
Procedure: (A) Representative IF images for SMAC and PSD colocalization in A549 cells. Scale bars represent 10, 2.5 μm, as indicated. (B) PLA assay showing direct interaction between SMAC and PSD in A549 cells (scale bar represent 10 μm). Immunoblot (C) and quantitative analysis cells (D) of PSD and SMAC expression levels relative to WI-38 (n=3). PSD activity (n=6) (E) and PE levels (n=6) (F) were analyzed in the indicated cell lines. (G) Purified PSD and SMAC used in this study. (H) PSD interaction with SMAC analyzed using the MST method (n=4). Purified SMAC was fluorescently labelled with the NanoTemper BLUE protein-labelling kit. SMAC (1 μM) was incubated with purified PISD (78-625 nM) for 30 min at 37° C., then thermophoresis was measured as described in the Materials and Methods section hereinbelow. […] (I) Inhibition of PSD activity by SMAC, as measured using the DSB-3 method (n=4). Results are the mean±SEM. *P≤0.05; **P≤0.01; ***P≤0.001; NS, nonsignificant.
(§1) Human recombinant SMAC (10339-H08E) was produced by Sino Biologicals (Wayne, PA, USA). […]
MST analysis was performed using a NanoTemper Monolith NT.115 apparatus as described earlier (Wienken C J, et al., 2010. Nat Commun 1, 100). […] After a 30-min incubation, 8 μl of the samples were loaded into a glass capillary (Monolith NT Capillaries), and thermophoresis was analyzed (LED 20%, IR laser 20%).

[2] = molecular target: T1, phosphatidylserine decarboxylase (PSD); test: PSD activity inhibition, DSB-3 method; type: biochemical; settings: read-out: IC50 of SMAC inhibiting PSD activity
Procedure: PE content in the lipid samples was measured as described previously (Choi J Y, et al. 2018. J Biol Chem 293, 1493-1503). Briefly, solvent was evaporated from the lipid samples under nitrogen gas, and samples were re-suspended in 0.8 mM Triton X-100. Sample aliquots were added to 96-well plates containing (50 μl) reaction mixture (80 mM NaCl, 2 mM K2HPO4, pH 7.4), and borate buffer (12.5 μl) (100 mM boric acid, 75 mM NaCl, 25 mM sodium tetraborate, pH 9). After mixing, 12.5 μl of 100 μM DSB-3, in 10 mM K2HPO4 (pH 7.4), were added and incubated for 2 h in the dark with shaking (100 rpm). Fluorescence was measured using excitation λex=403 nm and emission λem=508 nm. A calibration curve was obtained using PE (Biovision, CA) as a standard.
To determine PSD activity, purified enzyme (0.2-0.4 μM) or crude cell lysate (0.25-0.5 μg of protein) was incubated with PS (50 μM) for 45 min at 30° C. in the dark with shaking under the conditions described above for PE determination. PSD activity was measured by determining the PE produced as described above, except that the signal obtained in the absence of substrate PS (representing endogenous PE) was subtracted from the signal obtained in the presence of PS.
as §1

B1: SMAC: Human recombinant SMAC (10339-H08E) produced by Sino Biologicals (protein)
chain: AVPIAQKSEPHSLSSEALMRRAVSLVTDSTSTFLSQTTYALIEAITEYTKAVYTLTSLYRQYTSLLGKMNSEEEDEVWQVIIGARAEMTSKHQEYLKLETTWMTAVGLSEMAAEAAYQTGADQASITARNHIQLVKLQVEEVHQLSRKAETKLAEAQIEELRQKTQEEGEERAESEQEAYLRED
Kd [1]: 246 nM | IC50 [2]: 400 nM
